Values quoted from earlier work as cited in PMC2488365.

Biological target: penton base (Human adenovirus 2) (UniProt P03276)
Chain of UniProt P03276 (P03276 whole entry): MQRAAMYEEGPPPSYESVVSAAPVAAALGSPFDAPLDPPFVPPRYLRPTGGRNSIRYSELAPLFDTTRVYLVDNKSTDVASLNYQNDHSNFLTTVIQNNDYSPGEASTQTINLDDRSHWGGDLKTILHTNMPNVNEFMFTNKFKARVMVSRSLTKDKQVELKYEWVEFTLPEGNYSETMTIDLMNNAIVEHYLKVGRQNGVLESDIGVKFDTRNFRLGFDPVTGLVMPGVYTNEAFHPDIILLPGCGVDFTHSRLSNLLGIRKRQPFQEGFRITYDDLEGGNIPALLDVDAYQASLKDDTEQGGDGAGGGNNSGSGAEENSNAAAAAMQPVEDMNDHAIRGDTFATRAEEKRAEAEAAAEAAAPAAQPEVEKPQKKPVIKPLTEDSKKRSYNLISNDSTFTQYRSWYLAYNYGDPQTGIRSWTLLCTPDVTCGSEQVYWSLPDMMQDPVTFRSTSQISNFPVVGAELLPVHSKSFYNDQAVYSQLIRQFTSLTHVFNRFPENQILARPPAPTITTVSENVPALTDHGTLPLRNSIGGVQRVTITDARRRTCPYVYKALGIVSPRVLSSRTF

fiber (from UniProt P03275)
Kd: 200 nM
